As a reminder, the Kd is the constant that tells how readily two partners part at equilibrium.

In test [1] the target is T1, LATS1 PY12 (both PPxY motifs; aa 361-567) (UniProt O95835 361-567).
T1 construct: LATS1, region with both PPxY motifs, aa 361-567; cloned into pACYC; 15N-labelled in one of the NMR titrations; source: E. coli BL21 (DE3), purified
T1 sequence (looked up): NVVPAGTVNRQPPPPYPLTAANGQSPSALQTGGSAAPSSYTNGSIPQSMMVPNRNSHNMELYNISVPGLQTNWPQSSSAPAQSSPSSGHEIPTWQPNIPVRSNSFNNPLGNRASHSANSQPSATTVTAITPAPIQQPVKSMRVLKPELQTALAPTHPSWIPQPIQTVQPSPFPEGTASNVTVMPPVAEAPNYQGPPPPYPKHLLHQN
Kind of test: ITC; WW12 vs PY12; 20 mM Tris-HCl pH 7.0, 100 mM NaCl, 3% glycerol, 2 mM DTT, 2 mM EDTA; single ligand binding site model. The note with it: both partners purified. In general terms: Isothermal titration calorimetry measures the heat released or taken up as one component is titrated into another.

The target of test [2] is T2, YAP2 WW1 domain (aa 163-206) (human, UniProt P46937-2 163-206).
T2 construct: YES-associated protein, isoform YAP2 (YAP1-2, two WW domains), human, first WW domain, aa 163-206; cloned into pGEX-6P-1
The test can be described thus: ITC; protein 20 to 70 uM titrated against peptide 0.5 to 1.8 mM, 25°C, 20 mM Tris-HCl pH 7.0, 100 mM NaCl; single ligand binding site model. The note with it: both partners purified.

B1: YAP2 WW12 (both WW domains; aa 163-266) (domain or fragment, human, UniProt P46937-2 163-266, looked up)
chain: SSFEIPDDVPLPAGWEMAKTSSGQRYFLNHIDQTTTWQDPRKAMLSQMNVTAPTSPPVQQNMMNSASGPLPDGWEQAMTQDGEIYYINHKNKTTSWLDPRLDPR
notes: YES-associated protein, isoform YAP2 (YAP1-2), human, both WW domains, aa 163-266; cloned into pGEX-6P-1; 15N-labelled in one of the NMR titrations; source: also co-expressed with PY12 and co-purified
In test [1], B1 had a Kd of 9.6 µM.

B2: LATS1 PPxY1 peptide mutant R to A (peptide)
peptide: NAQPPPPYPLTA
notes: also called PPxY1m; PPxY1R→A; source: synthetic peptide, bought: GL BioChem
In test [2], B2 gave a Kd of 14 µM.

B3: LATS1 PPxY2 peptide mutant Q to A (peptide)
peptide: NYAGPPPPYPKH
notes: LATS1 PPxY2 peptide aa 551-562 with the Q at P1-3 changed to A; also called PPxY2m; PPxY2 Q→A; source: synthetic peptide, bought: GL BioChem
B3 registered a Kd in test [2] of 4.4 µM.

Values taken from paper PMC5814282, “Biophysical studies and NMR structure of YAP2 WW domain - LATS1 PPxY motif complexes reveal the basis of their interaction” (Oncotarget, 2018).
